Data taken from patent US20250011380A1.

Tests used:
Assay in all cases: cell-based or functional assay
IL2Rαβγ on CTLL2 cells = target: IL2Rαβγ on CTLL2 cells
[1] = target: IL-2Rβ and common γ chain on 32Dβ cells
IL-21R on B9 cells = target: IL-21R on B9 cells

Sequence of IL2Rαβγ on CTLL2 cells (P01590 22-268, chain 1 of 3): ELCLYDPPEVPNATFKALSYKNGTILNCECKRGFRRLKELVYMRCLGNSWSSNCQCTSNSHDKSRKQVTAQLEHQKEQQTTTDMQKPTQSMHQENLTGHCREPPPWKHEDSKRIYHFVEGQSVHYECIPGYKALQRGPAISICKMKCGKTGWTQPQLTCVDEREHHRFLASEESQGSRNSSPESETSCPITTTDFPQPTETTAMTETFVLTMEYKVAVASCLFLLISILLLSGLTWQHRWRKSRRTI
Sequence of IL2Rαβγ on CTLL2 cells (P16297 27-539, chain 2 of 3, further chain): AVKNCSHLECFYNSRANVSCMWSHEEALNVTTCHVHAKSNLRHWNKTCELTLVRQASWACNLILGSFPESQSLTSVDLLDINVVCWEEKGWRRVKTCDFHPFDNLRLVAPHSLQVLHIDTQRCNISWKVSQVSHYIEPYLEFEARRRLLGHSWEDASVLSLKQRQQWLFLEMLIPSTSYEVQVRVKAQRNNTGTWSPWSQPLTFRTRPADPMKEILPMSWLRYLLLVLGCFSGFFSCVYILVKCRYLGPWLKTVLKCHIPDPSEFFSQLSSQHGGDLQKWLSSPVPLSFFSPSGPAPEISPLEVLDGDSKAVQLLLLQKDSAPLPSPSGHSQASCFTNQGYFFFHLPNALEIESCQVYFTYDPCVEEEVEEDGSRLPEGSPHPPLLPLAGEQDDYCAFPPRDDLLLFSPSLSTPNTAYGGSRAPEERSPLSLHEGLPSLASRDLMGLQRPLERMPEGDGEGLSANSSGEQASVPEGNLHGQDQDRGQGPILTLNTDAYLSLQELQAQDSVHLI
Sequence of IL2Rαβγ on CTLL2 cells (P34902 23-369, chain 3 of 3, further chain): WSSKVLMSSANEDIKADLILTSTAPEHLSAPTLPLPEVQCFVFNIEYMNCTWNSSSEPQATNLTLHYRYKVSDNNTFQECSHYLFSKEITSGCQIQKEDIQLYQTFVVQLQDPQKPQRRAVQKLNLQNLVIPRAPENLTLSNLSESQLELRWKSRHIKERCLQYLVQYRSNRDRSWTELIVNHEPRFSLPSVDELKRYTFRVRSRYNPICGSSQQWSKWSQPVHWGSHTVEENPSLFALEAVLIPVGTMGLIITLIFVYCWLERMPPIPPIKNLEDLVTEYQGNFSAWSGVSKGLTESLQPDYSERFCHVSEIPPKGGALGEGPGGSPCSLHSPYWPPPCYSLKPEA

EC50, CTLL-2 cell proliferation (WST1) (IL2Rαβγ on CTLL2 cells)	EC50, 32Dβ cell proliferation (WST1) [1]	EC50, B9 cell proliferation (WST1) (IL-21R on B9 cells)	Substance
548 pM	140 pM	–	recombinant IL-2 (from UniProt P60568 21-153) (ligand)
–	–	72.5 nM	recombinant IL-21 (from UniProt Q9HBE4 32-162) (ligand)
